Assay results reported in patent US20210388087A1 (Chugai, published 2021).
Changes are numbered by the printed parent chain.

B1: CE115HA000 S62D (antibody, human IgG1, kappa, L234A L235A, N297A, name in Kabat numbering)
heavy: QVQLVESGGGVVQPGRSLRLSCAASGFTFSNAWMHWVRQAPGKGLEWVAQIKAKSNNYATYYAEDVKGRFTISRDDSKNSLYLQMNSLKTEDTAVYYCRYVHYGAYYGVDAWGQGTTVTVSSASTKGPSVFPLAPSSKSTSGGTAALGCLVKDYFPEPVTVSWNSGALTSGVHTFPAVLQSSGLYSLSSVVTVPSSSLGTQTYICNVNHKPSNTKVDKKVEPKSCDKTHTCPPCPAPEAAGGPSVFLFPPKPKDTLMISRTPEVTCVVVDVSHEDPEVKFNWYVDGVEVHNAKTKPREEQYASTYRVVSVLTVLHQDWLNGKEYKCKVSNKALPAPIEKTISKAKGQPREPQVYTLPPSRCELTKNQVSLSCAVKGFYPSDIAVEWESNGQPENNYKTTPPVLDSDGSFFLVSKLTVDKSRWQQGNVFSCSVMHEALHNHYTQKSLSLSPDYKDDDDK
chain: EPKSSDKTHTCPPCPAPELLGGPSVFLFPPKPKDTLMISRTPEVTCVVVDVSHEDPEVKFNWYVDGVEVHNAKTKPREEQYNSTYRVVSVLTVLHQDWLNGKEYKCKVSNKALPAPIEKTISKAKGQPREPQVCTLPPSRDELTKNQVSLWCLVKGFYPSDIAVEWESNGQPENNYKTTPPVLDSDGSFFLYSKLTVDKSRWQQGNVFSCSVMHEALHNRYTQKSLSLSP
light: DIVMTQSPLSLPVTPGEPASISCRSSQSLVHSNRNTYLHWYQQKPGQAPRLLIYKVSNRFSGVPDRFSGSGSGTDFTLKISRVEAEDVGVYYCGQGTQVPYTFGQGTKLEIKRTVAAPSVFIFPPSDEQLKSGTASVVCLLNNFYPREAKVQWKVDNALQSGNSQESVTEQDSKDSTYSLSSTLTLSKADYEKHKVYACEVTHQGLSSPVTKSFNRGEC
notes: one-arm antibody
B2: CE115HA000 T57A (antibody, human IgG1, kappa, L234A L235A, N297A, name in Kabat numbering)
heavy: B1 heavy with T60A, D65S
chain: B1 chain
light: B1 light
notes: one-arm antibody
B3: CE115HA000 V95D (antibody, human IgG1, kappa, L234A L235A, N297A, name in Kabat numbering)
heavy: B1 heavy with D65S, V101D
chain: B1 chain
light: B1 light
notes: one-arm antibody
B4: CE115HA000 V100cE (antibody, human IgG1, kappa, L234A L235A, N297A, name in Kabat numbering)
heavy: B1 heavy with D65S, V109E
chain: B1 chain
light: B1 light
notes: one-arm antibody
B5: CE115HA000 T57N (antibody, human IgG1, kappa, L234A L235A, N297A, name in Kabat numbering)
heavy: B1 heavy with T60N, D65S
chain: B1 chain
light: B1 light
notes: one-arm antibody
B6: CE115HA000 V100cD (antibody, human IgG1, kappa, L234A L235A, N297A, name in Kabat numbering)
heavy: B1 heavy with D65S, V109D
chain: B1 chain
light: B1 light
notes: one-arm antibody
B7: CE115HA000 S74A (antibody, human IgG1, kappa, L234A L235A, N297A, name in Kabat numbering)
heavy: B1 heavy with D65S, S77A
chain: B1 chain
light: B1 light
notes: one-arm antibody
B8: CE115HA000 V95G (antibody, human IgG1, kappa, L234A L235A, N297A, name in Kabat numbering)
heavy: B1 heavy with D65S, V101G
chain: B1 chain
light: B1 light
notes: one-arm antibody
B9: CE115HA000 T28S (antibody, human IgG1, kappa, L234A L235A, N297A, name in Kabat numbering)
heavy: B1 heavy with T28S, D65S
chain: B1 chain
light: B1 light
notes: one-arm antibody
B10: CE115HA000 V11L (antibody, human IgG1, kappa, L234A L235A, N297A, name in Kabat numbering)
heavy: B1 heavy with V11L, D65S
chain: B1 chain
light: B1 light
notes: one-arm antibody
B11: CE115HA000 T57I (antibody, human IgG1, kappa, L234A L235A, N297A, name in Kabat numbering)
heavy: B1 heavy with T60I, D65S
chain: B1 chain
light: B1 light
notes: one-arm antibody
B12: CE115HA000 V95A (antibody, human IgG1, kappa, L234A L235A, N297A, name in Kabat numbering)
heavy: B1 heavy with D65S, V101A
chain: B1 chain
light: B1 light
notes: one-arm antibody
B13: CE115HA000 S77T (antibody, human IgG1, kappa, L234A L235A, N297A, name in Kabat numbering)
heavy: B1 heavy with D65S, S80T
chain: B1 chain
light: B1 light
notes: one-arm antibody
B14: CE115HA000 T57K (antibody, human IgG1, kappa, L234A L235A, N297A, name in Kabat numbering)
heavy: B1 heavy with T60K, D65S
chain: B1 chain
light: B1 light
notes: one-arm antibody
B15: CE115HA000 V100cP (antibody, human IgG1, kappa, L234A L235A, N297A, name in Kabat numbering)
heavy: B1 heavy with D65S, V109P
chain: B1 chain
light: B1 light
notes: one-arm antibody
B16: CE115HA000 V95E (antibody, human IgG1, kappa, L234A L235A, N297A, name in Kabat numbering)
heavy: B1 heavy with D65S, V101E
chain: B1 chain
light: B1 light
notes: one-arm antibody
B17: CE115HA000 S62E (antibody, human IgG1, kappa, L234A L235A, N297A, name in Kabat numbering)
heavy: B1 heavy with D65E
chain: B1 chain
light: B1 light
notes: one-arm antibody
B18: CE115HA000 V95S (antibody, human IgG1, kappa, L234A L235A, N297A, name in Kabat numbering)
heavy: B1 heavy with D65S, V101S
chain: B1 chain
light: B1 light
notes: one-arm antibody
B19: CE115HA000 S74P (antibody, human IgG1, kappa, L234A L235A, N297A, name in Kabat numbering)
heavy: B1 heavy with D65S, S77P
chain: B1 chain
light: B1 light
notes: one-arm antibody
B20: CE115HA000 V95K (antibody, human IgG1, kappa, L234A L235A, N297A, name in Kabat numbering)
heavy: B1 heavy with D65S, V101K
chain: B1 chain
light: B1 light
notes: one-arm antibody
B21: CE115HA000 S62P (antibody, human IgG1, kappa, L234A L235A, N297A, name in Kabat numbering)
heavy: B1 heavy with D65P
chain: B1 chain
light: B1 light
notes: one-arm antibody
B22: CE115HA000 S62K (antibody, human IgG1, kappa, L234A L235A, N297A, name in Kabat numbering)
heavy: B1 heavy with D65K
chain: B1 chain
light: B1 light
notes: one-arm antibody
B23: CE115HA000 T28D (antibody, human IgG1, kappa, L234A L235A, N297A, name in Kabat numbering)
heavy: B1 heavy with T28D, D65S
chain: B1 chain
light: B1 light
notes: one-arm antibody

biological target: T1, CD3 epsilon homodimer protein (UniProt P07766 23-126); test: SPR, CD3 epsilon homodimer on chip, one-arm antibody as analyte;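 note: surface plasmon resonance at 25 °C with CD3 epsilon homodimer amine-coupled to a CM4 sensor chip, antibody injected as analyte, HBS-EP+ as running buffer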
T1 construct: also called CD3 (CD3 epsilon)
T1 sequence (P07766 23-126): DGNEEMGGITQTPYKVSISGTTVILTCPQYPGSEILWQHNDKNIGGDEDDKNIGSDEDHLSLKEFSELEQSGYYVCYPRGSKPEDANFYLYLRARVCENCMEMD

| KD ratio (KD of CE115HA000/KD of altered form) | Binder |
| --- | --- |
| 0.87 | B1 |
| 0.87 | B2 |
| 108 | B3 |
| 1.31 | B4 |
| 0.9 | B5 |
| 1.64 | B6 |
| 0.77 | B7 |
| 78300 | B8 |
| 0.79 | B9 |
| 0.83 | B10 |
| 0.81 | B11 |
| 3.15 | B12 |
| 0.83 | B13 |
| 1.22 | B14 |
| 0.97 | B15 |
| 50.5 | B16 |
| 0.82 | B17 |
| 4.61 | B18 |
| 0.7 | B19 |
| 1.15 | B20 |
| 0.77 | B21 |
| 0.99 | B22 |
| 0.93 | B23 |
